Measurements reported in patent publication US20210230263A1 (BIOATLA, published 2021).
Where a chain is given by its changes, count along the chain named. In names and notes the source's numbering stands.

T1: mouse IL-22 (mouse, UniProt Q9JJY9 34-179)
T1 construct: also called mIL-22; mIL22
T1 sequence (looked up): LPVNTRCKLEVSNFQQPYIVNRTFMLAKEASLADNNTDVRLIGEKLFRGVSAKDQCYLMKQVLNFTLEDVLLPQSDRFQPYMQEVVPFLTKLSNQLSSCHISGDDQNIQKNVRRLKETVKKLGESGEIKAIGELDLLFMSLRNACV

T2: human IL-22 (human, UniProt Q9GZX6 34-179)
T2 construct: also called hIL-22; hIL22
T2 sequence (looked up): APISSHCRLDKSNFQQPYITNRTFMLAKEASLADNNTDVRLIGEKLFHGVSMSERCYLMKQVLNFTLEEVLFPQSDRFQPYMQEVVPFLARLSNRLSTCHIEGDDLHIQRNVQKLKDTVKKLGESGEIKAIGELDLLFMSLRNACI

T3: human IL20 (human, UniProt Q9NYY1 25-176)
T3 sequence (looked up): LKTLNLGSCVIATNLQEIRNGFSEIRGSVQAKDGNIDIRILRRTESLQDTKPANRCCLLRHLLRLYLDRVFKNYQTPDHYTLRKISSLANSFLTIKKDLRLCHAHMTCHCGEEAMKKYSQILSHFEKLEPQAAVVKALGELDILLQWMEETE

T4: human IL24 (human, UniProt Q13007 52-206, limits assumed)
T4 sequence (looked up): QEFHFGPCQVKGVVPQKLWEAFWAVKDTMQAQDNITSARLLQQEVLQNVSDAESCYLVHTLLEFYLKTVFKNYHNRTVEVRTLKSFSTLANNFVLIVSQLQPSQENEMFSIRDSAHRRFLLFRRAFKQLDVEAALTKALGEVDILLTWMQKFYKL

T5: INF-γ (Homo sapiens (Human), UniProt P01579 24-161)
T5 sequence: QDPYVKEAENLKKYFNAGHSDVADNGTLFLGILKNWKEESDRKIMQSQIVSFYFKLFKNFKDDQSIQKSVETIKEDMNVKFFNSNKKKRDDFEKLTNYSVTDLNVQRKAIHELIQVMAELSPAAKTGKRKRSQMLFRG

T6: human IL26 (human, UniProt Q9NPH9 22-171, limits assumed)
T6 sequence (looked up): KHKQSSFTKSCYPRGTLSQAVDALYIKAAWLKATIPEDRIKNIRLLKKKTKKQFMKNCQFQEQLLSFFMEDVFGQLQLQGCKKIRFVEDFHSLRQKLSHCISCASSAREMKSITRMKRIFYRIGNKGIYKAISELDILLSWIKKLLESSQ

T7: human IL19 (human, UniProt Q9UHD0 25-177)
T7 sequence (looked up): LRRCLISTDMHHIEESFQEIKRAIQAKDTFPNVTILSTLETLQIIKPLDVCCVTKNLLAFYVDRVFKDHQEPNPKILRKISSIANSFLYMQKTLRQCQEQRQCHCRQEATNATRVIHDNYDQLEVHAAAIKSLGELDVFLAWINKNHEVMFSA

B1: CPE-LC-E049K (antibody, V domains shown)
VH: QVQLVQSGAEVKKPGASVKVSCKASGYIFTSYWIHWIRQPPGKGLEWIGRIYPGTGNTYYNEKFKGRVTISADKSISTAYLQWSSLKASDTAMYYCARSYDSSCAYWGQGTLVTVSS
VL: AIQLTQSPSSLSASVGDRVTITCSASSSVSYMHWYLQKPGQSPQLLIYKTSKLASGVPSRFSGSGSGTDFTFTISSLEAEDAATYYCQQWSSNPYITFGQGTKVEIKR
notes: One of the mutant antibodies of the CPE library made from hum10 (CDR positions substituted); built here as hum10 with E49K in the light chain, read from its name
B2: CPS-11 (antibody, V domains shown)
VH: B1 VH with T30R, N57R, S102Y, C104V
VL: B1 VL with S51R
notes: Mutant of humanized hum10, whole antibody expressed in CHO cells; also called LC-06 / HC-25
B3: CPS-14 (antibody, V domains shown)
VH: B1 VH with N57R, E62R, S102Y, C104V
VL: B1 VL with K49E, S51R
notes: Mutant of humanized hum10, whole antibody expressed in CHO cells; also called LC-04 / HC-31
B4: CPS-02 (antibody, V domains shown)
VH: B1 VH with T30R, N57R, C104V
VL: B1 VL with S51R
notes: Mutant of humanized hum10, whole antibody expressed in CHO cells; also called CPS-hit-02; CSP02
B5: CPS-10 (antibody, V domains shown)
VH: B1 VH with T30R, N57R, S102Y, C104V
VL: B1 VL with K49E, A54L
notes: Mutant of humanized hum10, whole antibody expressed in CHO cells; also called LC-05 / HC-25
B6: CPS-01 (antibody, V domains shown)
VH: B1 VH with T30R, N57R, C104V
VL: B1 VL
notes: Mutant of humanized hum10, whole antibody expressed in CHO cells; also called LC-03 / HC-08
B7: CPS-09 (antibody, V domains shown)
VH: B1 VH with T30R, N57R, S102Y, C104V
VL: B1 VL with K49E, S51R
notes: Mutant of humanized hum10, whole antibody expressed in CHO cells; also called CPS-hit-09; CSP09
B8: CPS-20 (antibody, V domains shown)
VH: B1 VH with T30R, E62R, D101M, C104V, A105G
VL: B1 VL with Y31K, K49E, S51R
notes: Mutant of humanized hum10, whole antibody expressed in CHO cells; also called LC-11 / HC-50
B9: CPS-16 (antibody, V domains shown)
VH: B1 VH with T30R, E62R, D101M, S102Y, C104V
VL: B1 VL
notes: Mutant of humanized hum10, whole antibody expressed in CHO cells; also called LC-03 / HC-49
B10: CPS-04 (antibody, V domains shown)
VH: B1 VH with T30R, E62R, C104V
VL: B1 VL with A54L
notes: Mutant of humanized hum10, whole antibody expressed in CHO cells; also called LC-07 / HC-09
B11: CPS-17 (antibody, V domains shown)
VH: B1 VH with T30R, E62R, D101M, S102Y, C104V
VL: B1 VL with K49E, S51R
notes: Mutant of humanized hum10, whole antibody expressed in CHO cells; also called LC-04 / HC-49

Legend:
[1] = target: T1, mouse IL-22; assay: SPR (SierraSensors SPR-2), mIL-22 immobilized on chip, antibody injected, heterogeneous ligand model
Description: (§1) The affinity of the 10 antibodies of Table 1 was measured by Surface Plasma Resonance (SPR) using a capture assay on a SPR-2 instrument (SierraSensiors, Hamburg, Germany). The antigens hIL-22 and mIL-22 were immobilized on chips. The running buffer for the assay contained 10 mM HEPES with a pH of 7.4, 500 mM NaCl, and 0.05% TWEEN® 20. […] The off-rate was measured for 6 minutes. Binding constants were calculated using the curve fitting software Analyzer2 (Sierra Sensors). Sensorgrams were analyzed with the instrument specific software and with BIAevaluation 4.1 software. The binding data were analyzed using the Langmuir 1:1 model (human IL-22) or a model for a heterogeneous ligand (mouse IL-220).

[2] = target: IL-22 (CXCL1 assay in HT29 cells); assay: cell-based or functional assay
[3] = target: T2, human IL-22; assay: SPR (SierraSensors SPR-2), hIL-22 immobilized on chip, antibody injected, Langmuir 1:1 model
Description: as §1

[4] = target: T3, human IL20; assay: ELISA on coated antigen (1 ug/ml), anti-hIgG-HRP, OD450;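 also: specificity check of antibodies applied at 100 ng/ml to wells bearing human or mouse IL-22, related cytokines or an unrelated control antigen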
Description: (§2) Plates were coated with 100 μl antigens at a concentration of 1 μg/ml. The plates were exposed to the antibodies at a concentration of 100 ng/ml. The bound antibodies were detected with anti-hIgG-HRP by the ELISA assay.

[5] = target: T4, human IL24; assay: as above
Description: as §2

[6] = target: T5, INF-γ; assay: as above
Description: as §2

[7] = target: T6, human IL26; assay: as above
Description: as §2

[8] = target: T7, human IL19; assay: as above
Description: as §2

[9] = target: INF-λ1 (Homo sapiens (Human), UniProt Q8IU54 20-200); assay: as above
Sequence of INF-λ1 (Q8IU54 20-200 limits assumed): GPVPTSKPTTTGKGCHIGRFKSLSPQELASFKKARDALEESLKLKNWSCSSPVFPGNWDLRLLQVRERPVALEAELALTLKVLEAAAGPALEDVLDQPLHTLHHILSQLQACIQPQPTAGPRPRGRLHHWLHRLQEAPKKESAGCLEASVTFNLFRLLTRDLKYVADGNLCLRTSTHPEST
Description: as §2

[10] = target: T2, human IL-22; assay: affinity ELISA and titration ELISA, CPE library screen
Excerpt: (§3) Specifically, the CPE™ variants were screened by affinity ELISA for mouse IL-22 (mIL-22) binding affinity. […] The primary CPE™ hits were re-arrayed, re-transfected, and screened again by affinity ELISA and also by titration ELISA using both mIL-22 and human IL-22 (hIL-22) for antibodies that bind to both mIL-22 and hIL-22.

[11] = target: T1, mouse IL-22; assay: as above
Excerpt: as §3

[12] = target: T2, human IL-22; assay: affinity ELISA on hIL22, mAb concentration at 50% max signal (second row of the same name)
[13] = target: T1, mouse IL-22; assay: affinity ELISA on mIL22, mAb concentration at 50% max signal
[14] = target: T2, human IL-22; assay: affinity ELISA on hIL22, mAb concentration at 50% max signal
[15] = target: T1, mouse IL-22; assay: affinity ELISA on mIL22, mAb concentration at 50% max signal (second row of the same name)
[16] = target: T2, human IL-22; assay: cell-based or functional assay
[17] = target: T1, mouse IL-22; assay: cell-based or functional assay
[18] = target: IL-22 (CXCL1 assay in HT29 cells); assay: cell-based or functional assay; remark: listed apart in the source

| Binder | Kd [1] [pM] | koff [1] [s⁻¹] | IC50 (parameter C of the log-logit fit y=(A-D)/(1+(x/C)^B)+D) of inhibition of IL-22-induced CXCL1 production in HT29 cells [2] [ng/ml] | Kd [3] [pM] | koff [3] [s⁻¹] | binding result [4] | binding result [5] | binding result [6] | binding result [7] | binding result [8] | binding result [9] | binding result [10] | binding result [11] | further results |
| --- | --- | --- | --- | --- | --- | --- | --- | --- | --- | --- | --- | --- | --- | --- |
| B1 | 40200 | 0.00137 | 124 | 156 | 5.93e-05 | no binding (tested: 100 ng/ml) | no binding (tested: 100 ng/ml) | no binding (tested: 100 ng/ml) | no binding (tested: 100 ng/ml) | no binding (tested: 100 ng/ml) | no binding (tested: 100 ng/ml) | – | – | – |
| B2 | – | – | – | – | – | – | – | – | – | – | – | binds | binds | – |
| B3 | 4800 | 0.00123 | 44.2 | 31.4 | 3.55e-05 | no binding (tested: 100 ng/ml) | no binding (tested: 100 ng/ml) | no binding (tested: 100 ng/ml) | no binding (tested: 100 ng/ml) | no binding (tested: 100 ng/ml) | no binding (tested: 100 ng/ml) | – | – | – |
| B4 | 3280 | 0.000545 | 29.5 | 25 | 4.67e-05 | no binding (tested: 100 ng/ml) | no binding (tested: 100 ng/ml) | no binding (tested: 100 ng/ml) | no binding (tested: 100 ng/ml) | no binding (tested: 100 ng/ml) | no binding (tested: 100 ng/ml) | – | – | EC50 [12]: 54 pM; EC50 [13]: 42 pM; EC50 [14]: 27 pM; EC50 [15]: 19 pM; STAT3 Phosphorylation; hIL22 % inhibition mAb [0.73 nM] [16]: 33.8%; Acute Phase response 5 µg mIL22 and 5 µg mAb (% signal reduction), molar ratio mIL22: mAb = 4.5:1 (serum amyloid in mice) [17]: 81%; CXCL-1 Assay (IC50 [pM]) double data points 02122015 [18]: 131 pM; CXCL-1 Assay (IC50 [pM]) single data points 02052015 [18]: 197 pM |
| B5 | – | – | – | – | – | – | – | – | – | – | – | binds | binds | – |
| B6 | – | – | – | – | – | – | – | – | – | – | – | binds | binds | – |
| B7 | 3960 | 0.000768 | 61.6 | 25.3 | 2.18e-05 | – | – | – | – | – | – | – | – | EC50 [12]: 74 pM; EC50 [13]: 141 pM; EC50 [14]: 81 pM; EC50 [15]: 34 pM; STAT3 Phosphorylation; hIL22 % inhibition mAb [0.73 nM] [16]: 12.1%; Acute Phase response 5 µg mIL22 and 5 µg mAb (% signal reduction), molar ratio mIL22: mAb = 4.5:1 (serum amyloid in mice) [17]: 73%; Acute Phase response 5 µg mIL22 and 50 µg mAb (% signal reduction), molar ratio of mIL22:mAb = 1:2.2 (serum amyloid in mice) [17]: 42%; CXCL-1 Assay (IC50 [pM]) double data points 02122015 [18]: 204 pM; CXCL-1 Assay (IC50 [pM]) single data points 02052015 [18]: 411 pM |
| B8 | – | – | – | – | – | – | – | – | – | – | – | binds | binds | – |
| B9 | – | – | – | – | – | – | – | – | – | – | – | binds | binds | – |
| B10 | 4230 | 0.00118 | 51 | 29.2 | 3.74e-05 | no binding (tested: 100 ng/ml) | no binding (tested: 100 ng/ml) | no binding (tested: 100 ng/ml) | no binding (tested: 100 ng/ml) | no binding (tested: 100 ng/ml) | no binding (tested: 100 ng/ml) | – | – | – |
| B11 | 6270 | 0.00158 | 155 | 52.2 | 6.94e-05 | no binding (tested: 100 ng/ml) | no binding (tested: 100 ng/ml) | no binding (tested: 100 ng/ml) | no binding (tested: 100 ng/ml) | no binding (tested: 100 ng/ml) | no binding (tested: 100 ng/ml) | – | – | – |
